Experimental data from patent US20180100026A1 (CALIFORNIA INSTITUTE FOR BIOMEDICAL RESEARCH, published 2018).
Changes are numbered by the printed parent chain. Values belong to the binder of their own block, whether it stands above or below them.

Experiments:
CD33 on MOLM14 cells [1] = target: T1, CD33 on MOLM14 cells (human, UniProt P20138 18-364); test: flow cytometry on MOLM-14 (CD33+) cells, MFI against Fab concentration, secondary antibody alone subtracted
T1 construct: whole, on cells; also called MOLM-14 cells (CD33+)
Description: Binding capacity is measured through MFI. MFI of secondary antibody alone was subtracted to account for background and non-specific staining.

[2] = target: T2, CAR-FITC (CD8 hinge), anti-FITC (FITC-E2 scFv) chimeric antigen receptor on T cells; test: flow cytometry on anti-FITC CAR T cells, Alexa Fluor 647 anti-human IgG or anti-human kappa secondary antibody, MFI against concentration
T2 construct: FITC-E2 scFv, CD8 hinge and transmembrane region, 41BB and CD3 zeta; also called Anti FITC CAR-EC with CD8 hinge; anti-FITC CAR
Description: (§1) Cells were incubated with indicated switch antibodies at 4° C. for 30-60 min and washed twice with staining buffer (1% BSA in PBS). […] After several washes, samples were acquired on a BD LSR II or BD Accuri C6 and analyzed using FlowJo 7.6.2 software.
(§2) Briefly, cells were incubated with indicated switch antibodies at 4° C. for 30-60 min and washed twice with staining buffer (1% BSA in PBS). […] After several washes, samples were acquired on a BD LSR II or BD Accuri C6 and analyzed using FlowJo 7.6.2 software.

[3] = target: T2, CAR-FITC (CD8 hinge), anti-FITC …; test: flow cytometry on anti-FITC CAR-T cells
Description: as §1, §2

CD33 on MOLM14 cells [4] = target: T1, CD33 on MOLM14 cells; test: cell-based or functional assay

T2 sequence (chain, as listed by the source mutant limits assumed): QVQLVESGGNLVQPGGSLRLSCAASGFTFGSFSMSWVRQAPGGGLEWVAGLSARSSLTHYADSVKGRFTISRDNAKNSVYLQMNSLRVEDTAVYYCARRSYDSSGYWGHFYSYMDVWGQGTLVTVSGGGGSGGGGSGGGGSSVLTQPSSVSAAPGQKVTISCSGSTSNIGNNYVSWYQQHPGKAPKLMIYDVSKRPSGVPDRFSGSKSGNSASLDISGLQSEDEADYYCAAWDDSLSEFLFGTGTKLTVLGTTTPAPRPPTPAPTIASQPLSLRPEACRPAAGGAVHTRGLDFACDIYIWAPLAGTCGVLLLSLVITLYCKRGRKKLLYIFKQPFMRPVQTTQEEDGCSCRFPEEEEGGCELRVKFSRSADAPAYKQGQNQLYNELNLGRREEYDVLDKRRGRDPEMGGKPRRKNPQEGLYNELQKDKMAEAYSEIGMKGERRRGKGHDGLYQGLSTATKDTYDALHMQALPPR
T1 sequence (P20138 18-364): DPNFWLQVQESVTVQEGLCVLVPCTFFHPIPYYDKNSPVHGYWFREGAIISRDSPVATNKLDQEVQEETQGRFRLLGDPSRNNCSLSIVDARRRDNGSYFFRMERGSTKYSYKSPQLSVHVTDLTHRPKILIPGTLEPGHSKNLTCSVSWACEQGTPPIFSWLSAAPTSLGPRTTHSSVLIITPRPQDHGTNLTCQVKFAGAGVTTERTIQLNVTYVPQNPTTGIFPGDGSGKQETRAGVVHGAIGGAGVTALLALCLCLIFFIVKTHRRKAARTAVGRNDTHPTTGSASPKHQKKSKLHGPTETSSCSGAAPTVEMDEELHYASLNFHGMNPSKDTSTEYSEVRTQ

EC50 [2]: 0.0064 nM
B6: anti-CD19 (FMC63) Fab C-FITC (light chain T109) (Fab, V domains shown)
VH: EVKLQESGPGLVAPSQSLSVTCTVSGVSLPDYGVSWIRQPPRKGLEWLGVIWGSETTYYNSALKSRLTIIKDNSKSQVFLKMNSLQTDDTAIYYCAKHYYYGGSYAMDYWGQGTSVTVSS
VL: DIQMTQTTSSLSASLGDRVTISCRASQDISKYLNWYQQKPDGTVKLLIYHTSRLHSGVPSRFSGSGSGTDYSLTISNLEQEDIATYFCQQGNTLPYTFGGGTKLEIKR
modifications: position 109 of the whole light chain = pAzF conjugated with BCN-PEG4-FITC
notes: Monovalent, medial site; also called LT109

EC50 [2]: 0.0034 nM
B8: anti-CD19 (FMC63) Fab AB-FITC (light chain G68 and heavy chain S74) (Fab, V domains shown)
VH: B6 VH
VL: B6 VL
modifications: position 74 = pAzF conjugated with BCN-PEG4-FITC; position 68 = pAzF conjugated with BCN-PEG4-FITC
notes: Bivalent, proximal sites; also called anti-CD19 AB-FITC; LG68/HS74

EC50 [2]: 0.0095 nM
B9: anti-CD19 (FMC63) Fab D-FITC (heavy chain A121) (Fab, V domains shown)
VH: B6 VH
VL: B6 VL
modifications: position 121 of the whole heavy chain = pAzF conjugated with BCN-PEG4-FITC
notes: Monovalent, medial site; also called HA121

efficacy in MOLM14 against the optimized anti-CD33 hM195 CD-FITC switch (CD33 on MOLM14 cells [4]): ~3 fold
B11: anti-CD33 hP67.6 AB-FITC switch (light chain G72 and heavy chain P75) (Fab, V domains shown)
VH: EVQLVQSGAEVKKPGSSVKVSCKASGYTITDSNIHWVRQAPGQSLEWIGYIYPYNGGTDYNQKFKNRATLTVDNXTNTAYMELSSLRSEDTAFYYCVNGNPWLAYWGQGTLVTVSS
VL: DIQLTQSPSTLSASVGDRVTITCRASESLDNYGIRFLTWFQQKPGKAPKLLMYAASNQGSGVPSRFSGSGSXTEFTLTISSLQPDDFATYYCQQTKEVPWSFGQGTKVEVKR
modifications: position 75 = pAzF conjugated with a cyclooctyne-PEG-FITC linker; position 72 = pAzF conjugated with a cyclooctyne-PEG-FITC linker
EC50 of cytotoxicity of anti-FITC CAR-T cells against MOLM14 cells (CD33 on MOLM14 cells [4]): 0.0065 nM

EC50 (CD33 on MOLM14 cells [1]): 3.96 nM
B12: anti-CD33 Fab (clone hP67.6) (Fab, V domains shown)
VH: B11 VH with X75P
VL: B11 VL with X72G

The next lines start with the binder.

B1: anti-CD33 Fab (clone hM195) (Fab, V domains shown)
VH: QVQLVQSGAEVKKPGSSVKVSCKASGYTFTDYNMHWVRQAPGQGLEWIGYIYPYNGGTGYNQKFKSKATITADESTNTAYMELSSLRSEDTAVYYCARGRPAMDYWGQGTLVTVSS
VL: DIQMTQSPSSLSASVGDRVTITCRASESVDNYGISFMNWFQQKPGKAPKLLIYAASNQGSGVPSRFSGSGSGTDFTLNISSLQPDDFATYYCQQSKEVPWTFGQGTKVEIKR
EC50 (CD33 on MOLM14 cells [1]): 1800 nM

B2: random anti-CD19 (FMC63) Fab FITC conjugate (Fab, V domains shown)
VH: B6 VH
VL: B6 VL
modifications: FITC-PEG4 by NHS chemistry at the N-terminal amino group (~58% of the conjugates); FITC-PEG4 by NHS chemistry at lysines, largely K31 (~20%) and K141 (~68.4%); paragraph 560 prints positions 31 and 145
notes: Heterogeneous mixture, average FITC to antibody ratio of 2; also called random conjugate; Random (DAR 2)
EC50 [2]: 0.0029 nM

B3: anti-CD19 (FMC63) Fab F-FITC (heavy chain K136) (Fab, V domains shown)
VH: B6 VH
VL: B6 VL
modifications: position 136 of the whole heavy chain = pAzF conjugated with BCN-PEG4-FITC
notes: Monovalent, distal site; also called HK136
EC50 [2]: 0.0092 nM

B4: anti-CD19 (FMC63) Fab EF-FITC (light chain S202 and heavy chain K136) (Fab, V domains shown)
VH: B6 VH
VL: B6 VL
modifications: position 136 of the whole heavy chain = pAzF conjugated with BCN-PEG4-FITC; position 202 of the whole light chain = pAzF conjugated with BCN-PEG4-FITC
notes: Bivalent, distal sites; also called LS202/HK136
EC50 [2]: 0.0029 nM
EC50 [3]: ~3 nM

B5: anti-CD19 (FMC63) Fab E-FITC (light chain S202) (Fab, V domains shown)
VH: B6 VH
VL: B6 VL
modifications: position 202 of the whole light chain = pAzF conjugated with BCN-PEG4-FITC
notes: Monovalent, distal site; also called LS202
EC50 [2]: 0.007 nM

B7: anti-CD19 (FMC63) Fab B-FITC (heavy chain S74) (Fab, V domains shown)
VH: B6 VH
VL: B6 VL
modifications: position 74 = pAzF conjugated with BCN-PEG4-FITC
notes: Monovalent, proximal site; also called HS74
EC50 [2]: 0.0091 nM

B10: anti-CD19 (FMC63) Fab A-FITC (light chain G68) (Fab, V domains shown)
VH: B6 VH
VL: B6 VL
modifications: position 68 = pAzF conjugated with BCN-PEG4-FITC
notes: Monovalent, proximal site; also called LG68
EC50 [2]: 0.0094 nM
